Laboratory results reported in US20050048066A1 (published 2005).

The binders below were run against HLA-DR1 (human) (assay: competitive binding assay; DR1 format not described).

| IC50 [µM] | Binder |
| --- | --- |
| 1.75 | HFVMQRLPLYFIVN (peptide, UniProt P02708 224-237, looked up) [AChRα peptide 204-217] |
| 11.2 | QLIQLINVDEVNQI (peptide, UniProt P02708 56-69, looked up, range 36-49; also called AChRα 36-49) [AChRα peptide 36-49] |
| 11.7 | KYVAMVMDHILLGV (peptide, UniProt P02708 420-433, looked up) [AChRα peptide 400-413] |
